Values joined by “and” are separate entries in the source; they are usually repeats but may differ in a detail not shown here. Equal values may be shown once.

T1: PlGF (human, UniProt P49763)
T1 chain: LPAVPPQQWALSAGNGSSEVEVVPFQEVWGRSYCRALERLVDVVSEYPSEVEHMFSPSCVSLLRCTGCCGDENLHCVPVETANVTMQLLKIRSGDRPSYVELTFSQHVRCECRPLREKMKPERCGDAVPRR

T2: VEGF (human, UniProt P15692)
T2 chain: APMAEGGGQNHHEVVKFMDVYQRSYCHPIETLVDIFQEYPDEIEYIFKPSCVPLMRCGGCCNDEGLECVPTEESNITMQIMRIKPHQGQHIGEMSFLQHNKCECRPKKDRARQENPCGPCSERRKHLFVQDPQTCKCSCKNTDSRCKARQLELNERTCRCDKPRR

B1: DVD026 HGF arm (antibody, V domains shown)
VH: QVQLVESGGGLVKPGGSLRLSCAASGFTFSDYYMSWIRQAPGKGLEWVSYISSSGSTIYYADSVKGRFTISRDNAKNSLYLQMNSLRAEDTAVYYCARDEYNSGWYVLFDYWGQGTLVTVSS
VL: DIQMTQSPSSVSASVGDRVTITCRASQGISSWLAWYQQKPGKAPNLLIYEASSLQSGVPSRFGGSGSGTDFTLTISSLQPEDFATYYCQQANGFPWTFGQGTKVEIKR
modifications: DVD-Ig outer
B2: DVD046 HGF arm (antibody, V domains shown)
VH: B1 VH
VL: B1 VL
modifications: DVD-Ig outer
B3: DVD300 ErbB3 arm (antibody, V domains shown)
VH: QVQLQQWGAGLLKPSETLSLTCAVYGGSFSGYYWSWIRQPPGKGLEWIGEINHSGSTNYNPSLKSRVTISVETSKNQFSLKLSSVTAADTAVYYCARDKWTWYFDLWGRGTLVTVSS
VL: not shown
modifications: DVD-Ig inner
B4: AB047 (antibody, V domains shown)
VH: QVQLQQSGAELVKPGASVKISCKASGYTFTDYYINWVKLAPGQGLEWIGWIYPGSGNTKYNEKFKGKATLTIDTSSSTAYMQLSSLTSEDTAVYFCVRDSPFFDYWGQGTLLTVSS
VL: DIVLTQSPDSLAVSLGERVTMNCKSSQSLLNSGMRKSFLAWYQQKPGQSPKLLIYWASTRESGVPDRFTGSGSGTDFTLTISSVQAEDVAVYYCKQSYHLFTFGSGTKLEIKR
B5: DVD258 PlGF arm (antibody, V domains shown)
VH: B4 VH
VL: B4 VL
modifications: DVD-Ig outer
B6: DVD257 PlGF arm (antibody, V domains shown)
VH: B4 VH
VL: B4 VL
modifications: DVD-Ig inner
B7: DVD463 VEGF arm (antibody, V domains shown)
VH: EVQLVESGGGLVQPGGSLRLSCAASGFTINASWIHWVRQAPGKGLEWVGAIYPYSGYTNYADSVKGRFTISADTSKNTAYLQMNSLRAEDTAVYYCARWGHSTSPWAMDYWGQGTLVTVSS
VL: DIQMTQSPSSLSASVGDRVTITCRASQVIRRSLAWYQQKPGKAPKLLIYAASNLASGVPSRFSGSGSGTDFTLTISSLQPEDFATYYCQQSNTSPLTFGQGTKVEIKR
B8: DVD491 VEGF arm (antibody, V domains shown)
VH: B7 VH
VL: B7 VL
B9: DVD468 VEGF arm (antibody, V domains shown)
VH: B7 VH
VL: B7 VL
B10: DVD522 VEGF arm (antibody, V domains shown)
VH: B7 VH
VL: B7 VL
B11: DVD510 VEGF arm (antibody, V domains shown)
VH: B7 VH
VL: B7 VL
B12: DVD503 VEGF arm (antibody, V domains shown)
VH: B7 VH
VL: B7 VL
B13: DVD527 VEGF arm (antibody, V domains shown)
VH: B7 VH
VL: B7 VL
B14: DVD458 VEGF arm (antibody, V domains shown)
VH: B7 VH
VL: B7 VL
B15: DVD467 VEGF arm (antibody, V domains shown)
VH: B7 VH
VL: B7 VL
B16: DVD480 VEGF arm (antibody, V domains shown)
VH: B7 VH
VL: B7 VL
B17: DVD533 VEGF arm (antibody, V domains shown)
VH: B7 VH
VL: B7 VL
B18: DVD492 VEGF arm (antibody, V domains shown)
VH: B7 VH
VL: B7 VL
B19: DVD446 VEGF arm (antibody, V domains shown)
VH: B7 VH
VL: B7 VL
B20: DVD497 VEGF arm (antibody, V domains shown)
VH: B7 VH
VL: B7 VL
B21: DVD516 VEGF arm (antibody, V domains shown)
VH: B7 VH
VL: B7 VL
B22: DVD504 VEGF arm (antibody, V domains shown)
VH: B7 VH
VL: B7 VL
B23: DVD445 VEGF arm (antibody, V domains shown)
VH: B7 VH
VL: B7 VL
B24: DVD474 VEGF arm (antibody, V domains shown)
VH: B7 VH
VL: B7 VL
B25: DVD457 VEGF arm (antibody, V domains shown)
VH: B7 VH
VL: B7 VL
B26: DVD473 VEGF arm (antibody, V domains shown)
VH: B7 VH
VL: B7 VL
B27: DVD528 VEGF arm (antibody, V domains shown)
VH: B7 VH
VL: B7 VL
B28: DVD521 VEGF arm (antibody, V domains shown)
VH: B7 VH
VL: B7 VL
B29: DVD498 VEGF arm (antibody, V domains shown)
VH: B7 VH
VL: B7 VL
B30: DVD485 VEGF arm (antibody, V domains shown)
VH: B7 VH
VL: B7 VL
B31: DVD452 VEGF arm (antibody, V domains shown)
VH: B7 VH
VL: B7 VL
B32: DVD486 VEGF arm (antibody, V domains shown)
VH: B7 VH
VL: B7 VL
B33: DVD534 VEGF arm (antibody, V domains shown)
VH: B7 VH
VL: B7 VL
B34: DVD515 VEGF arm (antibody, V domains shown)
VH: B7 VH
VL: B7 VL
B35: DVD509 VEGF arm (antibody, V domains shown)
VH: B7 VH
VL: B7 VL
B36: DVD479 VEGF arm (antibody, V domains shown)
VH: B7 VH
VL: B7 VL
B37: DVD451 VEGF arm (antibody, V domains shown)
VH: B7 VH
VL: B7 VL
B38: DVD464 VEGF arm (antibody, V domains shown)
VH: B7 VH
VL: B7 VL

In one test the target is T3, HGF (human, UniProt P14210). As to the kind of experiment: SPR. For orientation: SPR reads the build-up and loss of mass on a sensor chip optically.
T3 sequence (P14210 32-728): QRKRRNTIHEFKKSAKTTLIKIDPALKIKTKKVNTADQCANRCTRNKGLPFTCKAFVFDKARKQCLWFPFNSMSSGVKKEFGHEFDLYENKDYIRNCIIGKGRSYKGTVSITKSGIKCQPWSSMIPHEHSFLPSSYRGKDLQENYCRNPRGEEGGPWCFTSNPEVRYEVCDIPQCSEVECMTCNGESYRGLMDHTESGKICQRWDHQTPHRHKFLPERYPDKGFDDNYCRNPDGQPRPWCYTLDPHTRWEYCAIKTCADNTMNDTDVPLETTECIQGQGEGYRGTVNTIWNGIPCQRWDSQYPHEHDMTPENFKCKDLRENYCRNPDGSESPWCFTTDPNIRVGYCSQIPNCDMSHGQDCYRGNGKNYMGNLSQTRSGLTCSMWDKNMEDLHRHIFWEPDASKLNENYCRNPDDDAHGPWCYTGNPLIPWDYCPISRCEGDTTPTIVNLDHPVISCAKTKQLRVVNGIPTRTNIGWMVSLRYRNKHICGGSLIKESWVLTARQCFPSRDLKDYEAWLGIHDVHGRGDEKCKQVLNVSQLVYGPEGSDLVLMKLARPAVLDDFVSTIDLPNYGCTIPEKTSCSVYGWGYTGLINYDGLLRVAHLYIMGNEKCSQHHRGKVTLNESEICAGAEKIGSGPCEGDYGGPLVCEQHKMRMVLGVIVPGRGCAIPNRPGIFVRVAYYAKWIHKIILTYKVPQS
Consider B1, for which binding was put at a Kd of 0.0159 nM.

Turning to B2, the dissociation constant Kd (usually the equilibrium constant for the complex coming apart) was less than 0.0236 nM.

A further test deals with ErbB3 (human, UniProt P21860). The test can be described thus: ELISA. A general note: In an ELISA, binding on a coated surface is turned into a signal by an enzyme label.
Consider B3, for which it took 7630 nM to reach a half-maximal effect (EC50).

In the next test the target is T1, PlGF. As to the kind of experiment: ELISA.
Consider B4, for which a half-maximal response (EC50) required 0.2 nM.

With B5, it took 0.08 nM to reach a half-maximal effect (EC50).

With B6, the EC50 (commonly the midpoint of the concentration-response curve) was determined as 2 nM.

The next test deals with T1, PlGF. As to the kind of experiment: SPR.
As for B4, the Kd was 0.0285 nM and 0.0284 nM.

Take B5: the dissociation constant (Kd) is less than 0.254 nM.

B6 had an equilibrium dissociation constant (Kd) of 0.367 nM.

Another test concerns the target T3, HGF. As to the kind of experiment: ELISA.
In turn, B1 displayed an EC50 of 0.33 nM.

For the molecule B2, the EC50 is 0.5 nM.

A further test addresses T2, VEGF. The test can be described thus: ELISA.
B7 came in with a concentration giving a half-maximal response (EC50) of 1730 nM.

Molecule B8 yielded an EC50 of 1250 nM.

B9 returned an EC50 of 25.6 nM.

Molecule B10 registered an EC50 of 23.5 nM.

For B11, the concentration giving a half-maximal response (EC50) amounted to 23.9 nM.

In turn, B12 registered an EC50 of 430 nM.

The molecule B13 displayed a half-maximal effective concentration (EC50) of 2380 nM.

The molecule B14 gave an EC50 of 21.5 nM.

For the molecule B15, the EC50 was 1810 nM.

For the molecule B16, the response was half-maximal at 23 nM (EC50).

Molecule B17 registered an EC50 of 1260 nM.

B18 yielded a half-maximal effective concentration (EC50) of 8.42 nM.

Molecule B19 had an EC50 of 14.4 nM.

In turn, B20 registered a half-maximal effective concentration (EC50) of 858 nM.

B21: the midpoint of the response, the EC50, lay at 24.6 nM.

For B22, the EC50 is 16.7 nM.

The molecule B23 showed a concentration for a half-maximal effect (EC50) of 14500 nM.

B24 registered a 50% effective concentration (EC50) of 17.9 nM.

In the case of B25, the EC50 is 1480 nM.

B26 returned an EC50 of 388 nM.

Take B27: the concentration for a half-maximal effect (EC50) came to 27.7 nM.

B28 had an EC50 of 655 nM.

The molecule B29 displayed an EC50 of 30.6 nM.

B30 had a half-maximal effective concentration (EC50) of 121 nM.

In the case of B31, it took 17.8 nM to reach a half-maximal effect (EC50).

The molecule B32 yielded an EC50 of 28 nM.

In the case of B33, the midpoint of the response, the EC50, lay at 23.6 nM.

B34 returned an EC50 of 3020 nM.

Consider B35, for which the EC50 is 121 nM.

B36 registered an EC50 of 456 nM.

The molecule B37 yielded a concentration giving a half-maximal response (EC50) of 2400 nM.

The molecule B38 registered a 50% effective concentration (EC50) of 19.3 nM.

Values taken from US9029508 (dated 2015).
